From paper PMC11574045, “A cofactor-induced repressive type of transcription factor condensation can be induced by synthetic peptides to suppress tumorigenesis” (The EMBO Journal, 2024)

B1: NFKBIA (protein, UniProt P25963 1-317, looked up)
NF-kappa-B inhibitor alpha: MFQAAERPQEWAMEGPRDGLKKERLLDDRHDSGLDSMKDEEYEQMVKELQEIRLEPQEVPRGSEPWKQQLTEDGDSFLHLAIIHEEKALTMEVIRQVKGDLAFLNFQNNLQQTPLHLAVITNQPEIAEALLGAGCDPELRDFRGNTPLHLACEQGCLASVGVLTQSCTTPHLHSILKATNYNGHTCLHLASIHGYLGIVELLVSLGADVNAQEPCNGRTALHLAVDLQNPDLVSLLLKCGADVNRVTYQGYSPYQLTWGRPSTRIQQQLGQLTLENLQMLPESEDEESYDTESEFTEFTEDELPYDDCVFGGQRLTL
B2: NFKBIB (protein, UniProt Q15653 1-356, looked up)
NF-kappa-B inhibitor beta: MAGVACLGKAADADEWCDSGLGSLGPDAAAPGGPGLGAELGPGLSWAPLVFGYVTEDGDTALHLAVIHQHEPFLDFLLGFSAGTEYMDLQNDLGQTALHLAAILGETSTVEKLYAAGAGLCVAERRGHTALHLACRVGAHACARALLQPRPRRPREAPDTYLAQGPDRTPDTNHTPVALYPDSDLEKEEEESEEDWKLQLEAENYEGHTPLHVAVIHKDVEMVRLLRDAGADLDKPEPTCGRSPLHLAVEAQAADVLELLLRAGANPAARMYGGRTPLGSAMLRPNPILARLLRAHGAPEPEGEDEKSGPCSSSSDSDSGDEGDEYDDIVVHSSRSQTRLPPTPASKPLPDDPRPV
B3: NFKB2 (protein, UniProt Q00653 1-900, looked up)
Nuclear factor NF-kappa-B …: MESCYNPGLDGIIEYDDFKLNSSIVEPKEPAPETADGPYLVIVEQPKQRGFRFRYGCEGPSHGGLPGASSEKGRKTYPTVKICNYEGPAKIEVDLVTHSDPPRAHAHSLVGKQCSELGICAVSVGPKDMTAQFNNLGVLHVTKKNMMGTMIQKLQRQRLRSRPQGLTEAEQRELEQEAKELKKVMDLSIVRLRFSAFLRASDGSFSLPLKPVISQPIHDSKSPGASNLKISRMDKTAGSVRGGDEVYLLCDKVQKDDIEVRFYEDDENGWQAFGDFSPTDVHKQYAIVFRTPPYHKMKIERPVTVFLQLKRKRGGDVSDSKQFTYYPLVEDKEEVQRKRRKALPTFSQPFGGGSHMGGGSGGAAGGYGGAGGGGSLGFFPSSLAYSPYQSGAGPMGCYPGGGGGAQMAATVPSRDSGEEAAEPSAPSRTPQCEPQAPEMLQRAREYNARLFGLAQRSARALLDYGVTADARALLAGQRHLLTAQDENGDTPLHLAIIHGQTSVIEQIVYVIHHAQDLGVVNLTNHLHQTPLHLAVITGQTSVVSFLLRVGADPALLDRHGDSAMHLALRAGAGAPELLRALLQSGAPAVPQLLHMPDFEGLYPVHLAVRARSPECLDLLVDSGAEVEATERQGGRTALHLATEMEELGLVTHLVTKLRANVNARTFAGNTPLHLAAGLGYPTLTRLLLKAGADIHAENEEPLCPLPSPPTSDSDSDSEGPEKDTRSSFRGHTPLDLTCSTKVKTLLLNAAQNTMEPPLTPPSPAGPGLSLGDTALQNLEQLLDGPEAQGSWAELAERLGLRSLVDTYRQTTSPSGSLLRSYELAGGDLAGLLEALSDMGLEEGVRLLRGPETRDKLPSTAEVKEDSAYGSQSVEQEAEKLGPPPEPPGGLCHGHPQPQVH
B4: NFIL3 (protein, UniProt Q16649 1-462, looked up)
Nuclear factor …: MQLRKMQTVKKEQASLDASSNVDKMMVLNSALTEVSEDSTTGEELLLSEGSVGKNKSSACRRKREFIPDEKKDAMYWEKRRKNNEAAKRSREKRRLNDLVLENKLIALGEENATLKAELLSLKLKFGLISSTAYAQEIQKLSNSTAVYFQDYQTSKSNVSSFVDEHEPSMVSSSCISVIKHSPQSSLSDVSEVSSVEHTQESSVQGSCRSPENKFQIIKQEPMELESYTREPRDDRGSYTASIYQNYMGNSFSGYSHSPPLLQVNRSSSNSPRTSETDDGVVGKSSDGEDEQQVPKGPIHSPVELKHVHATVVKVPEVNSSALPHKLRIKAKAMQIKVEAFDNEFEATQKLSSPIDMTSKRHFELEKHSAPSMVHSSLTPFSVQVTNIQDWSLKSEHWHQKELSGKTQNSFKTGVVEMKDSGYKVSDPENLYLKQGIANLSAEVVSLKRLIATQPISASDSG
B5: NFATC1 (protein, UniProt O95644 1-943, looked up)
Nuclear factor of activated …: MPSTSFPVPSKFPLGPAAAVFGRGETLGPAPRAGGTMKSAEEEHYGYASSNVSPALPLPTAHSTLPAPCHNLQTSTPGIIPPADHPSGYGAALDGGPAGYFLSSGHTRPDGAPALESPRIEITSCLGLYHNNNQFFHDVEVEDVLPSSKRSPSTATLSLPSLEAYRDPSCLSPASSLSSRSCNSEASSYESNYSYPYASPQTSPWQSPCVSPKTTDPEEGFPRGLGACTLLGSPRHSPSTSPRASVTEESWLGARSSRPASPCNKRKYSLNGRQPPYSPHHSPTPSPHGSPRVSVTDDSWLGNTTQYTSSAIVAAINALTTDSSLDLGDGVPVKSRKTTLEQPPSVALKVEPVGEDLGSPPPPADFAPEDYSSFQHIRKGGFCDQYLAVPQHPYQWAKPKPLSPTSYMSPTLPALDWQLPSHSGPYELRIEVQPKSHHRAHYETEGSRGAVKASAGGHPIVQLHGYLENEPLMLQLFIGTADDRLLRPHAFYQVHRITGKTVSTTSHEAILSNTKVLEIPLLPENSMRAVIDCAGILKLRNSDIELRKGETDIGRKNTRVRLVFRVHVPQPSGRTLSLQVASNPIECSQRSAQELPLVEKQSTDSYPVVGGKKMVLSGHNFLQDSKVIFVEKAPDGHHVWEMEAKTDRDLCKPNSLVVEIPPFRNQRITSPVHVSFYVCNGKRKRSQYQRFTYLPANVPIIKTEPTDDYEPAPTCGPVSQGLSPLPRPYYSQQLAMPPDPSSCLVAGFPPCPQRSTLMPAAPGVSPKLHDLSPAAYTKGVASPGHCHLGLPQPAGEAPAVQDVPRPVATHPGSPGQPPPALLPQQVSAPPSSSCPPGLEHSLCPSSPSPPLPPATQEPTCLQPCSPACPPATGRPQHLPSTVRRDESPTAGPRLLPEVHEDGSPNLAPIPVTVKREPEELDQLYLDDVNEIIRNDLSSTSTHS
B6: NFATX (protein, UniProt Q12968 2-1075, looked up)
Nuclear factor of activated …: TTANCGAHDELDFKLVFGEDGAPAPPPPGSRPADLEPDDCASIYIFNVDPPPSTLTTPLCLPHHGLPSHSSVLSPSFQLQSHKNYEGTCEIPESKYSPLGGPKPFECPSIQITSISPNCHQELDAHEDDLQINDPEREFLERPSRDHLYLPLEPSYRESSLSPSPASSISSRSWFSDASSCESLSHIYDDVDSELNEAAARFTLGSPLTSPGGSPGGCPGEETWHQQYGLGHSLSPRQSPCHSPRSSVTDENWLSPRPASGPSSRPTSPCGKRRHSSAEVCYAGSLSPHHSPVPSPGHSPRGSVTEDTWLNASVHGGSGLGPAVFPFQYCVETDIPLKTRKTSEDQAAILPGKLELCSDDQGSLSPARETSIDDGLGSQYPLKKDSCGDQFLSVPSPFTWSKPKPGHTPIFRTSSLPPLDWPLPAHFGQCELKIEVQPKTHHRAHYETEGSRGAVKASTGGHPVVKLLGYNEKPINLQMFIGTADDRYLRPHAFYQVHRITGKTVATASQEIIIASTKVLEIPLLPENNMSASIDCAGILKLRNSDIELRKGETDIGRKNTRVRLVFRVHIPQPSGKVLSLQIASIPVECSQRSAQELPHIEKYSINSCSVNGGHEMVVTGSNFLPESKIIFLEKGQDGRPQWEVEGKIIREKCQGAHIVLEVPPYHNPAVTAAVQVHFYLCNGKRKKSQSQRFTYTPVLMKQEHREEIDLSSVPSLPVPHPAQTQRPSSDSGCSHDSVLSGQRSLICSIPQTYASMVTSSHLPQLQCRDESVSKEQHMIPSPIVHQPFQVTPTPPVGSSYQPMQTNVVYNGPTCLPINAASSQEFDSVLFQQDATLSGLVNLGCQPLSSIPFHSSNSGSTGHLLAHTPHSVHTLPHLQSMGYHCSNTGQRSLSSPVADQITGQPSSQLQPITYGPSHSGSATTASPAASHPLASSPLSGPPSPQLQPMPYQSPSSGTASSPSPATRMHSGQHSTQAQSTGQGGLSAPSSLICHSLCDPASFPPDGATVSIKPEPEDREPNFATIGLQDITLDDVNEIIGRDMSQISVSQGAGVSRQAPLPSPESLDLGRSDGL
B7: ATF2/CRE-BP (protein, UniProt P15336 1-505, looked up)
Cyclic AMP-dependent …: MKFKLHVNSARQYKDLWNMSDDKPFLCTAPGCGQRFTNEDHLAVHKHKHEMTLKFGPARNDSVIVADQTPTPTRFLKNCEEVGLFNELASPFENEFKKASEDDIKKMPLDLSPLATPIIRSKIEEPSVVETTHQDSPLPHPESTTSDEKEVPLAQTAQPTSAIVRPASLQVPNVLLTSSDSSVIIQQAVPSPTSSTVITQAPSSNRPIVPVPGPFPLLLHLPNGQTMPVAIPASITSSNVHVPAAVPLVRPVTMVPSVPGIPGPSSPQPVQSEAKMRLKAALTQQHPPVTNGDTVKGHGSGLVRTQSEESRPQSLQQPATSTTETPASPAHTTPQTQSTSGRRRRAANEDPDEKRRKFLERNRAAASRCRQKRKVWVQSLEKKAEDLSSLNGQLQSEVTLLRNEVAQLKQLLLAHKDCPVTAMQKKSGYHTADKDDSSEDISVPSSPHTEAIQHSSVSTSNGVSSTSKAEAVATSVLTQMADQSTEPALSQIVMAPSSQSQPSGS
B8: ATF2 (protein, UniProt P16951 1-487, looked up)
Cyclic AMP-dependent …: MSDDKPFLCTAPGCGQRFTNEDHLAVHKHKHEMTLKFGPARNDSVIVADQTPTPTRFLKNCEEVGLFNELASPFENEFKKASEDDIKKMPLDLSPLATPIIRSKIEEPSVVETTHQDSPLPHPESTTSDEKEVPLAQTAQPTSAIVRPASLQVPNVLLTSSDSSVIIQQAVPSPTSSTVITQAPSSNRPIVPVPGPFPLLLHLPNGQTMPVAIPASITSSNVHVPAAVPLVRPVTMVPSVPGIPGPSSPQPVQSEAKMRLKAALTQQHPPVTNGDTVKGHGSGLVRTQSEESRPQSLQQPATSTTETPASPAHTTPQTQNTSGRRRRAANEDPDEKRRKFLERNRAAASRCRQKRKVWVQSLEKKAEDLSSLNGQLQSEVTLLRNEVAQLKQLLLAHKDCPVTAMQKKSGYHTADKDDSSEDLSVPSSPHTEAIQHSSVSTSNGVSSTSKAEAVATSVLTQMADQSTEPALSQIVMAPPSQAQPSGS

Tested on: HEK293FT cells transfected with TF library
Test: Screening of TF condensates based on fluorescent puncta
Assay type: cell-based
Settings: Figure 1B numerical data; TF library screen, one value per transcriptional factor
Summary of the method: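 HEK293FT cells were reverse-transfected with Flag- or GAL4-tagged TF plasmids (1.6 μg/ml, PEI). After 60 h, cells were cultured 12 h with or without glucose, then fixed and immunostained with anti-Flag or anti-GAL4 and Alexa 488 secondaries. Fluorescent puncta were imaged over fifty random fields per well by high-content imaging.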

Q: B1 was tested. Which “Z score of condensed fraction” value did it give?
A: 0.298

Q: With B2 as the molecule, how does the “Z score of condensed fraction” value read?
A: 1.097

Q: For B3, which “Z score of condensed fraction” value is on record?
A: 0.04386

Q: How did the “Z score of condensed fraction” value turn out when B4 was run?
A: -0.6996

Q: With B5 as the molecule, how does the “Z score of condensed fraction” value read?
A: -0.245

Q: For B6, which “Z score of condensed fraction” value is on record?
A: -0.5752

Q: For B7, which “Z score of condensed fraction” value is on record?
A: -0.7003

Q: Which “Z score of condensed fraction” value does the source give for B8 here?
A: 2.014
